Numbering of substitutions follows the chain as printed.
T1: 2488prp (Xpp1 candidate) (Hypocrea jecorina (Trichoderma reesei), UniProt G0RQ24 1-492)
T1 sequence: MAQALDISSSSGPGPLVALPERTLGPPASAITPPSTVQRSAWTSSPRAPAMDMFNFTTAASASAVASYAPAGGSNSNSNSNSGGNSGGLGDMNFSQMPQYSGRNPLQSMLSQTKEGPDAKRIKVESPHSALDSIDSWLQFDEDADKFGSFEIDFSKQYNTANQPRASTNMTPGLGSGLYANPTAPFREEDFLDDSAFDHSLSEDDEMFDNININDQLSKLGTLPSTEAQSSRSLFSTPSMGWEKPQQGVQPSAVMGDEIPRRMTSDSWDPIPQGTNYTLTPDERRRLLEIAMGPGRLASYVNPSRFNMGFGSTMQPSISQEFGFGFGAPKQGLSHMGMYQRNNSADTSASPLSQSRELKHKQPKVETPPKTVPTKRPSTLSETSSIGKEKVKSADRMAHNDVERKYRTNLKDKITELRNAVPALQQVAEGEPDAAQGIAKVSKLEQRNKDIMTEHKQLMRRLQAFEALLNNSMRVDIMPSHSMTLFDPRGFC

T2: 2488prp DBD (Xpp1 candidate) (Hypocrea jecorina (Trichoderma reesei), UniProt G0RQ24 395-492)
T2 sequence: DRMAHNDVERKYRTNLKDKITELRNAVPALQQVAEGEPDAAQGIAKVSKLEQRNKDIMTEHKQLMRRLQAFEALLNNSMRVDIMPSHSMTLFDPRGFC

B1: Lpxyn2 (dsDNA)
DNA 1: TGATGAAAGGAGAACAACTTCTAGACTGGGTAAATTGGTCAATGGCCAGCCGCTC
DNA 2: GAGCGGCTGGCCATTGACCAATTTACCCAGTCTAGAAGTTGTTCTCCTTTCATCA
B2: Lpxyn2 M (dsDNA)
DNA 1: B1 DNA 1 with T19G, T20G, C21A, T22G
DNA 2: B1 DNA 2 with A34C, G35T, A36C, A37C

How the values were obtained:
[1] = biological target: T1, 2488prp (Xpp1 candidate); test: EMSA; EMSA: 100 ng DBD or 60 ng IVT protein with 15 ng FAM probe, 15 min on ice, binding buffer per cited ref [41]; pull-down binding mix: 200 mM KCl, 200 ng/uL poly(dIdC), 200 ng/uL CKT067/CKT068, 8 mM spermidine, on ice; settings: protein: ivt; chain copies: 2; label: 5'-FAM on strand 1; blunt
[2] = biological target: T2, 2488prp DBD (Xpp1 candidate); test: as above; settings: protein: recombinant; tags: GST removed by thrombin; chain copies: 2; label: 5'-FAM on strand 1; blunt

Binder	binding result [1]	binding result [2]
B1	binds	binds
B2	no binding	no binding

Source: paper PMC3012607, “From an electrophoretic mobility shift assay to isolated transcription factors: a fast genomic-proteomic approach”
